The subject of this data set is RpsA WT (Mycobacterium tuberculosis H37Rv). Put plainly: MST. The conditions noted are these: MST: PBS-T/MST buffer with 0.1% Tween 20, 15 min at room temperature, 50 nM RpsA, tmRNA dilution series from 4.1 uM; EMSA buffer not given in material. (A gel shift assay detects complexes by their altered migration in electrophoresis.)

The substance tmRNA came in with a Kd of 0.0581 µM.

One may read the Kd as a measure of binding affinity in units of concentration. Read a low Kd as a tighter complex.

Values taken from PMC7239899.
